These results are taken from the DeepSol protein solubility set.

A short description of this data set: soluble on expression in E. coli; label from the status in PepcDB or PDB records.
In the case of “MTESFAQLFEEFLNETQFQQGTIVKGTVVAIENGYVLVDAGLKSESAIPAEQFKNAAGELEVQVGSQVDVALDAVEDGFGETQLSREKAKRHEAWIVLEKAYEEAATVIGIINGKVKGGFTVELNGIRAFLPGSLVDVRPIRDTAHLENKELEFKVIKLDQKRNNVVVSRRAVIESESSVERDELLETLQEGTEVKGIVKNLTDYGAFVDLGGVDGLLHITDMAWKRVKHPSEIVNVGDEILVKVLKFDRDRTRVSLGLKQLGEDPWVAIAKRYPEGHKLSGRVTNLTDYGCFVEIEEGVEGLVHVSEMDWTNKNIHPSKVVNVGDEVEVMVLDIDEERRRISLGLKQCKANPWQSFAEAQAKGDKVTGKIKSITDFGIFIGLEGGIDGLVHLSDISWNVPGEEAVREFKKGDEISAVVLAVDAERERISLGIKQMENDPFNAYVSDNKKGALVNGTVTAVDAKGATIELEDGVEGYIRASEVSRDRIEDASLILNVGDKVEAKFTGVDRKNRVINLSIKAKDEAEEQEVMATLNKQDEAAFGNAMADAFKAAKGELEHHHHHH”, the “soluble on expression in E. coli” value is on record as “not soluble”.

In the case of “MAQMKDNNVSNRATLVLYENRFIPLYRMIKEELIRFVQKKGIKSGMALPGDNELASQFGVSVGTVRRAIAELVSERIVIRQQGRGTFLAPYDTSRMLNSFWHIERRDGVVDVPLVSTHGFSQASATEEVAQKLALQPGDPVFVIKNSMTMQGTPVLLDTIYVPVRTFEGLTREKLSARDATIYDFYREQYGINIVKTIDRVSATVADKDTAKRLGCKLGAPMLRILRVAYSFGDTPIEYRCSLLDSENHEYVDVTGGDTSRYG”, the “soluble on expression in E. coli” value is recorded as “not soluble”.

With “MEKQLKAMSVSDKPAAPAAQKLGTAPLAAKKTRNEEWGTKVNIDTNIRKLTIKPNQPIYKYAVQVNYVFRKPDGTEATIEMSKSAKKGTEHDNDKTRCQNVYNEAIKRYDELKTGGPFFYDRQASLYTLTKLKNESISFVVTDKICKRQNFKEAQFVLKKVDQSFQSTSNDVIKTTNSCPANADKTLLEAMNIIVSGPAFENKNVITVGACVHYLIDPTGVDVAYKEYPEGQLYSGVGVSKSVKTLEGTDKKVPSLFMTTEMKTTLFHPDYAPLVELLQTFRGFSTTLKANSPAAQRIEKAFVGLDVVLNYGVHKGLGEDGVVMKIRRFHTSAKETCFEVEKSTREFTNVFDYFKKKYGITLKYPDLFTIEAKGKQGKIHFPAEVLLLCPNQTVTNDQMINNEQADMIKMSAAQPHIRKTTTDTIVRNVGLASNNIYGFIKVEDPVNLEGMVLPKPKIAFAGNRLADLANPKSRFPTDFNRAGQYYDAKELTKWELVFVQNEEVQGLAKQLADEMVNNGMKCSNPTMSFIIRGDLEPIFKKAKAAGTQLLFFVVKSRYNYHQQIKALEQKYDVLTQEIRAETAEKVFRQPQTRLNIINKTNMKLGGLNYAIGSEAFNKPNRLIVGFVTSQRVGGNPDYPISVGFAANMLKHHQKFAGGYVYVHRDRDVFGSIIKDTLLTIFKTCTEQRGRPDDILLYFNGVSEGQFSMINEEFSARVKEACMAFQKEGTPPFRPHITIIASSKAHNERLYKSDKGRIVNLEPGTVVDHTIVSNVYTEWYHASAVARQGTAKATKFTLIFTTKAGPQAEPLWHLEQLTNDLCYDHQIVFHPVGLPVPLYIADRYSQRGAMVLAANQGPIYNEGQIDLAATNSAYGYGEKKLFTTRFNA”, the “soluble on expression in E. coli” value is given as “not soluble”.

On to “MSTVIKGGTIVTADLTYKADVKVEGGRIVEIGPNLSGAETLDATGCYVMPGGIDPHTHLEMPFMGTYSSDDFESGTRAALAGGTTMVVDFALPSPGQSLLEALTMWDNKSTRANCDYSFHMAITWWGEQVFNEMETIVKDKGINTFKHFMAYKGALMVDDDEMFSSFQRCAALGALPLVHAENGDVVAQLQAKLLAEGNSGPEAHAYSRPAEVEGEAANRAIMIADMAGCPVYIVHTSCEQAHEAIRRARAKGMRVFGEPLIQHLTLDETEYFDKDWDHAARRVMSPPFRNKLHQDSLWAGLASGSLQVVATDHCAFTTEQKRFGVGDFTRIPNGTGGLEDRMPMLWTYGVATGRITMNEFVAVTSTNIAKILNIYPKKGAILVGADADLVVWDPKRSKTISAKTQQSAIDYNVFEGKTVTGLPRFTLTRGVVSIEEGTVKTQEGHGEFVRRDPFPAVSTALSTWKEVTAPRAVQRSGIPASGVHHHHHH”, for which the “soluble on expression in E. coli” value is “soluble”.

Take “MRSQDKYERFIQLLAHEFFHLWNVKRIRPQALEVFNYDQENYTPSLWFCEGTTSYYDLLIPLRAGIYDAKTYLNYWSKEISRLITTPGRKVQPLSESSFDAWIKLYRPDTNTGNSQVSYYLKGELEHHHHHH”: the “soluble on expression in E. coli” value is “not soluble”.

In the case of “MKFSIIVPSYNSEKYIAELLNSLQNQSYDKKDFEVILVDDCSSDNTLNVVEAYKNKLNLIIKQLDTNSGGPGKPRNTALQLAQGEYVFFVDSDDYINKDTLKDVSKFVDQNHADVVLVKMEGVNGRGVPKSMFKETSDAVTLANSRIIYTLSPTKFYRTSLLRDHAIEFPEDLRSAEDQLFTMKAYVNAKRIAVLADKPYYYATKREGEHMSSAYVSPEDFYKVMSLITEEILNSPLENKNEVLGYFIDRHFSFSRTNNFSLKIADDKKEAWMDALGDFIQKVPTVVDELVNDSFKPLLHYARLKDMKHYQMVEESYKNGKFHSYSAQEGTLKIQFDEGEPYFVFKKLVKPDIRMSHFEFNDQGFELELEFISSIINPNHVASMIQLKLLSRNKKEFIYIPLTMNDQTRFKFKADLNDLMPYLIKEKVWDAHLEMRVDNMTIEKRIGNKRVKYPYSKETSTITQYNNQYYRFTPYFTKDFDNLSFYITSNKLNEMLAVEIKDKQTIQLRSLEFNYILSEGMTAVILPHMFTYGYLTSVTTKDTLTYHLSVGEKVKDKDLKKNFKIETPHLVLKYLEHHHHHH”, the “soluble on expression in E. coli” value is “soluble”.

For “MAVGLGPLPALHPVPGFELGISSAGIKRPGRKDVVVMRCAEGSSVAGVFTLNAFCAAPVILAKQRVQGTVRYLLTNTGNANAGTGEPGLVAARRTCEALAQLTGVDASAVLPYSTGVIGEPLPVEKIEGALQAALDDLSVDNWAAAATGIMTTDTLPKGASRQFTHDGVTITVTGISKGAGMIRPNMATMLGYIATDAKVSQSVLQDLIRDGANKSFNRLTIDGDTSTNDCCMLIATGQADLPEITEAKGLLFEALKKAVFDVCMEVAQAIVRDGEGATKFVTVEVNGGGNHQECLDVGYAVAHSPLIKTALFASDPNWGRILAAVGRAGVPDLDVSKIDVFLGGVCIASQGCRATTYTEEQGSAVMAEAEITIRIELGRGDCSETIWTTDLSHEYVKINAEYRTLEHHHHHH”, the “soluble on expression in E. coli” value was “not soluble”.

On to “MSLTTSPDARWTRRRTEKQRRLEQVRTLADGVVLPTDKIVAALEALLVSGDRVVLEGNNQKQADFLSRALAKVDPGKVHDLHMIMPSVGRAEHLDLFEQGIARKLDFSFAGTQSLRISQLLEDGLLEIGAIHTYIELYSRLVVDLIPNVVLAAGFMADRAGNIYTGPSTEDTPALIEPAAFSDGIVIVQVNQLVDDVSELPRVDIPASWVDFVVVADKPFYIEPLFTRDPRHIKPVHVLMAMMAIRGIYEKHNVQSLNHGIGFNTAAIELILPTYGESLGLKGKICRNWTLNPHPTLIPAIESGWVESVHCFGTELGMENYIAARPDVFFTGRDGSLRSNRQLCQLAGQYAVDLFIGATLQVDGDGHSSTVTRGRLAGFGGAPNMGHDPRGRRHATPAWLDMRQQNESGPDAYLERGKKLVVQMVETFQEGGKPTFVETLDAVEVAKKSGMPLAPIMIYGDDVTHLLTEEGIAYLYKARSLEERQAMIAAVAGVTVIGLRHNPKDTARMRREGLIALPEDLGIRRTDASREGHHHHHH”, for which the “soluble on expression in E. coli” value is recorded as “not soluble”.

“MGSDKIHHHHHHMSKFWEKEFTCPFCGTKFKKKMVFFDSIKIKARDIDLKPVFEDVNPMFYEVVTCPNCYFSAFDKDFETITIKGEETERKLKKLLEEAKKKVELKNVENHVEAIKRYALSGMVYSVLNQRKKVAISYLKIAWLFRELGKSEEEKRYLERALKEFESHYKYDYYEESDEPMILFYLGVLNQILGNRKEAARWYELLLRKYDGKSLYAKVGRERWQELRRS”: the “soluble on expression in E. coli” value was “not soluble”.

Turning to “MQRKLATWAATDPSLRIQRLLRLITQPEWLAEAARITLSSKGAHTPGVDGVNKTMLQARLAVELQILRDELLSGHYQPLPARRVYIPKSNGKLRPLGIPALRDRIVQRAMLMAMEPIWESDFHTLSYGFRPERSVHHAIRTVKLQLTDCGETRGRWVIEGDLSSYFDTVHHRLLMKAVRRRISDARFMTLLWKTIKAGHIDVGLFRAASEGVPQGGVISPLLSNIMLNEFDQYLHERYLSGKARKDRWYWNNSIQRGRSTAVRENWQWKPAVAYCRYADDFVLIVKGTKAQVEAIREECRGVLEGSLKLRLNMDKTKIPHVNDGFIFLGHRLIRKRSRYGEMRVVSTIPQEKARNFAASLTALLWKVRISGEILLGLEHHHHHH”, the “soluble on expression in E. coli” value is on record as “not soluble”.
